Experimental findings from patent US20030203447A1 (XOMA TECHNOLOGY, published 2003) are described below.

Positions count from the first letter of the chain named.

The target in assay [1] is T1, Ep-CAM on the surface of HT-29 human colorectal carcinoma cells (human, UniProt P16422 24-314).
T1 construct: also called Epithelial Cell Adhesion Molecule; Ep-CAM-expressing HT-29 cells
T1 sequence: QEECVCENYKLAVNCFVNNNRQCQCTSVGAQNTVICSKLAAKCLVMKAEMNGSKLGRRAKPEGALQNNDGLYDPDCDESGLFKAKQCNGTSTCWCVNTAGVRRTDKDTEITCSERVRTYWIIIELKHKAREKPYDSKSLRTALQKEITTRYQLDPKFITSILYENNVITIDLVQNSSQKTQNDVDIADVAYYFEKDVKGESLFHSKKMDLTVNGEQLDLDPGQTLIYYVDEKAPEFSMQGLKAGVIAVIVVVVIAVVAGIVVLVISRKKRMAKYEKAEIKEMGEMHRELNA
The assay is described as follows: competition with 125I-labelled chimeric ING-1 on HT-29 cells. The source says: (§1) Vectors constructed according to Example 6 encoding human engineered ING-1 light and heavy chain genes, for example, pING1937 (low risk human engineered ING-1) and pING1944 (low plus moderate risk human engineered ING-1) were linearized by XbaI and used to transfect serum-free adapted CHO—K1 followed by selection of G418-resistant transfectants. Protein was purified from shake flask culture supernatants by passage over a protein A column. To evaluate the binding activity of the produced immunoglobulin polypeptides, competition binding assays with the human carcinoma cell line HT-29 were performed. This colorectal carcinoma cell line expresses a molecule known as Ep-CAM on its surface. Ep-CAM is recognized by immunoglobulin polypeptides having the antigen binding specificity of the mouse-human chimeric ING-1 antibody produced by cell line HB 9812 as deposited with the ATCC.
(§2) HTG29 cells were grown to confluency (˜2×10⁵ cells/well) in 96 well plates. Mouse-human chimeric ING-1 was labeled with Na¹²⁵I (Iodo-gen®, Pierce). The competition conditions included in a 100 μl assay volume, 0.1 nM labeled mouse-human chimeric ING-1, 2-fold serial dilutions of unlabeled immunoglobulin polypeptides, for example, as produced by cells transfected with pING1937 and pING1944. […] Labeled cells were removed with NaOH and counted. […]

The target of assay [2] is T1, Ep-CAM on the surface of HT-29 human …. Briefly: competition with iodinated low risk ING-1 on HT-29 cells.
Assay [3] shares this target. Briefly: competition binding on HT-29 cells.
Excerpt: as §1, §2

B1: human engineered (low risk) ING-1 (antibody, human IgG1, kappa)
VL: DIVMTQSALSNPVTLGESGSISCRSSKSLLHSNGITYLYWYLQKPGQSPQLLIYQMSNRASGVPDRFSSSGSGTDFTLKISRVEAEDVGVYYCAQNLELPRTFGQGTKLEMKRTVAAPSVFIFPPSDEQLKSGTASVVCLLNNFYPREAKVQWKVDNALQSGNSQESVTEQDSKDSTYSLSSTLTLSKADYEKHKVYACEVTHQGLSSPVTKSFNRGEC
VH: not shown
notes: It carries 6 low risk changes in VL and 13 low risk changes in VH; also called ING-1 (heMab); low risk human engineered ING-1
Take B1: the binding result in assay [1] was “binds”.

B2: modified ING-1 with low plus moderate risk light chain and low risk heavy chain (antibody, human IgG1, kappa)
VL: B1 VL with A8P, N11L, L15P, S18P
VH: not shown
As for B2, the binding result in assay [2] is recorded as “binds”.

B3: human engineered (low plus moderate risk) ING-1 (antibody, human IgG1, kappa)
VL: B1 VL with A8P, N11L, L15P, S18P
VH: not shown
notes: Whole IgG built like pING1937 (human kappa and gamma-1 constant regions); It carries 10 low plus moderate risk changes in VL and 20 in VH; also called product of pING1944
B3: the binding result in assay [3] is “binds”.

B4: modified ING-1 with low risk light chain and low plus moderate risk heavy chain (antibody, human IgG1, kappa)
VL: B1 VL
VH: not shown
Consider B4, for which, in assay [2], the binding result is recorded as “binds”.

B5: mouse-human chimeric ING-1 (antibody, human IgG1, kappa, V domains shown)
VH: QIQLVQSGPELKKPGETVKISCKASGYTFTKYGMNWVKQAPGKGLKWMGWINTYTEEPTYGDDFKGRFAFSLETSASTANLQINNLKSEDTATYFCARFGSAVDYWGQGTSVTVSS
VL: DIVMTQAAFSNPVTLGTSGSISCRSSKSLLHSNGITYLYWYLQKPGQSPQLLIYQMSNLASGVPDRFSSSGSGTDFTLRISRVEAEDVGVYYCAQNLELPRTFGGGTKLEMKR
notes: Variable regions of mouse antibody Br-1 with human constant regions; also called mouse-human chimeric ING-1 antibody produced by cell line HB 9812
On to B5, for which the binding result in assay [1] was “binds”.
